± gives the uncertainty stated by the source.
Assay: protein stability index of a GFP-peptide fusion (yeast GPS) (PSI 1-4); higher = more stable; sorted into four equal gates, so the index is relative within each strain
Outline: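 Sequencing reads from sorted gates were used to score each peptide. The library consisted of tiled 17-residue yeast protein peptides fused downstream of GFP on a Cherry-expressing plasmid, pooled and carried in yeast. Mid-log cultures in leucine-free medium were split into four equal gates by GFP/Cherry ratio, and each gate's plasmids were PCR-amplified and Illumina-sequenced. The protein stability index adds up, over all gates, the read frequency multiplied by the gate number.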

LDKDRKALIQRKGGKLE [RPL26A]
protein stability index (doa10∆): 2.48 ± 0.18 | protein stability index (pdr5∆): 3.5 ± 0.21 | protein stability index (san1∆): 3.12 ± 0.09 | protein stability index (ubr1∆): 2.97 ± 0.14

LPDGKNGNLEEEFAYVD [MED6]
protein stability index (doa10∆): 3.41 ± 0.066 | protein stability index (pdr5∆): 3.44 ± 0.12 | protein stability index (san1∆): 3.42 ± 0.052 | protein stability index (ubr1∆): 3.32 ± 0.074

AVKTAETGYMSRRLMKS [RPO31]
protein stability index (doa10∆): 2.33 ± 0.13 | protein stability index (san1∆): 2.52 ± 0.25

HLGKGTMTMDVFNDAHV [RPN1]
protein stability index (doa10∆): 2.96 ± 0.073 | protein stability index (pdr5∆): 2.98 ± 0.084 | protein stability index (san1∆): 2.06 ± 0.12 | protein stability index (ubr1∆): 2.87 ± 0.081

DMDPLAVSAASVVSMSN [SIR2]
protein stability index (doa10∆): 1.67 ± 0.065 | protein stability index (pdr5∆): 2.31 ± 0.12 | protein stability index (san1∆): 1.71 ± 0.18 | protein stability index (ubr1∆): 2.19 ± 0.072

SELFDEWFEQNNSEQDQ [ISW2]
protein stability index (doa10∆): 2.49 ± 0.067 | protein stability index (pdr5∆): 2.54 ± 0.071 | protein stability index (san1∆): 1.44 ± 0.14 | protein stability index (ubr1∆): 1.95 ± 0.051

PLDSKDENFASVSPAGP [SNF2]
protein stability index (doa10∆): 3.05 ± 0.11 | protein stability index (pdr5∆): 3.12 ± 0.092 | protein stability index (san1∆): 3.15 ± 0.071 | protein stability index (ubr1∆): 2.99 ± 0.06

NSKNDSANVELFKRDCN [YCS4]
protein stability index (doa10∆): 2.75 ± 0.071 | protein stability index (pdr5∆): 3.05 ± 0.089 | protein stability index (san1∆): 3.25 ± 0.12 | protein stability index (ubr1∆): 3.17 ± 0.07

VTDLSGKETIARVTGGM [RPS14B]
protein stability index (doa10∆): 3.03 ± 0.087 | protein stability index (pdr5∆): 3.09 ± 0.081 | protein stability index (san1∆): 2.79 ± 0.055 | protein stability index (ubr1∆): 2.9 ± 0.061

YESRNVAKRRFEYSKYR [RRP6]
protein stability index (doa10∆): 3.16 ± 0.072 | protein stability index (pdr5∆): 3.4 ± 0.087 | protein stability index (san1∆): 3.29 ± 0.041 | protein stability index (ubr1∆): 3.3 ± 0.079

MAHRVKVIPYSTFRLNL [RPO21]
protein stability index (doa10∆): 1.87 ± 0.07 | protein stability index (pdr5∆): 1.82 ± 0.071 | protein stability index (san1∆): 1.2 ± 0.12 | protein stability index (ubr1∆): 2.29 ± 0.095

YVSQIRKHKRVSPNAAP [YAR002W/NUP60]
protein stability index (doa10∆): 1.95 ± 0.084 | protein stability index (pdr5∆): 1.64 ± 0.053 | protein stability index (san1∆): 2.53 ± 0.085 | protein stability index (ubr1∆): 2.29 ± 0.081

TLIKKKQDEKKSSELEL [SMC2]
protein stability index (doa10∆): 3.24 ± 0.076 | protein stability index (pdr5∆): 3.37 ± 0.071 | protein stability index (san1∆): 3.29 ± 0.047 | protein stability index (ubr1∆): 3.05 ± 0.046

TKPGVYYVPYSKLMPVL [RPC82]
protein stability index (doa10∆): 1.54 ± 0.059 | protein stability index (pdr5∆): 1.59 ± 0.049 | protein stability index (san1∆): 1.91 ± 0.067 | protein stability index (ubr1∆): 1.96 ± 0.09

NVSDEQLSNWQKIRNSE [ITC1]
protein stability index (doa10∆): 3.15 ± 0.071 | protein stability index (pdr5∆): 3.2 ± 0.095 | protein stability index (san1∆): 2.94 ± 0.1 | protein stability index (ubr1∆): 2.98 ± 0.087

EFLINEGTPINNVYFAA [RPN14]
protein stability index (doa10∆): 2.33 ± 0.07 | protein stability index (pdr5∆): 2.17 ± 0.052 | protein stability index (san1∆): 1.91 ± 0.087 | protein stability index (ubr1∆): 1.94 ± 0.047

AEEAIVNAMRVLYYRDA [PRE4]
protein stability index (pdr5∆): 3.33 ± 0.17 | protein stability index (san1∆): 2.73 ± 0.2

TTSRFSKQVTDYYQSIY [FAS2]
protein stability index (doa10∆): 2.77 ± 0.056 | protein stability index (pdr5∆): 2.87 ± 0.071 | protein stability index (san1∆): 2.47 ± 0.089 | protein stability index (ubr1∆): 2.59 ± 0.05

VKEESQPDENTKEMDEV [SWI3]
protein stability index (doa10∆): 3.3 ± 0.19 | protein stability index (pdr5∆): 2.81 ± 0.24 | protein stability index (san1∆): 3.07 ± 0.17 | protein stability index (ubr1∆): 3.03 ± 0.11

ESEKLVTPEDVMTISSL [RPC82]
protein stability index (doa10∆): 3.23 ± 0.083 | protein stability index (pdr5∆): 3.13 ± 0.078 | protein stability index (san1∆): 3.05 ± 0.059 | protein stability index (ubr1∆): 3.26 ± 0.072

KYKSGGKFSFSPLQKEE [SSN2]
protein stability index (doa10∆): 1.54 ± 0.072 | protein stability index (pdr5∆): 1.43 ± 0.064 | protein stability index (san1∆): 1.46 ± 0.15 | protein stability index (ubr1∆): 1.53 ± 0.047

KKQAQKQTKLRKEKEKK [SMB1]
protein stability index (doa10∆): 3.04 ± 0.27 | protein stability index (san1∆): 2.46 ± 0.3

EARAEAINLMGVKNNLL [RPO31]
protein stability index (doa10∆): 3.35 ± 0.22 | protein stability index (pdr5∆): 1.96 ± 0.15 | protein stability index (san1∆): 1.84 ± 0.23 | protein stability index (ubr1∆): 1.66 ± 0.24

ILVMETSEEQTKFLAKN [SWP82]
protein stability index (doa10∆): 3.01 ± 0.094 | protein stability index (pdr5∆): 2.91 ± 0.11 | protein stability index (san1∆): 2.94 ± 0.048 | protein stability index (ubr1∆): 3 ± 0.092

TLLNFVSNNVLRRLEIL [ECM29]
protein stability index (doa10∆): 1.63 ± 0.1 | protein stability index (pdr5∆): 1.92 ± 0.29 | protein stability index (san1∆): 2.28 ± 0.19 | protein stability index (ubr1∆): 2.48 ± 0.12

AKLHRISPKIWCAGAGT [PUP1]
protein stability index (doa10∆): 1.93 ± 0.049 | protein stability index (pdr5∆): 1.87 ± 0.046 | protein stability index (san1∆): 1.85 ± 0.056 | protein stability index (ubr1∆): 1.88 ± 0.042

GSKISSNDLDKFFQKKI [YGL172W/NUP49]
protein stability index (doa10∆): 1.72 ± 0.069 | protein stability index (pdr5∆): 2.02 ± 0.076 | protein stability index (san1∆): 1.7 ± 0.074 | protein stability index (ubr1∆): 2.27 ± 0.057

DSPASNEDDLTVKLTEI [RPO31]
protein stability index (doa10∆): 2.94 ± 0.071 | protein stability index (pdr5∆): 3.15 ± 0.068 | protein stability index (san1∆): 2.97 ± 0.053 | protein stability index (ubr1∆): 3.19 ± 0.056

TKNGTPNPNNMKTVQSP [GAL11]
protein stability index (doa10∆): 2.96 ± 0.086 | protein stability index (pdr5∆): 2.92 ± 0.081 | protein stability index (san1∆): 2.77 ± 0.062 | protein stability index (ubr1∆): 2.91 ± 0.066

QPQQSTIGGGLFGNKPT [YGR119C/NUP57]
protein stability index (doa10∆): 2.75 ± 0.087 | protein stability index (pdr5∆): 2.73 ± 0.15 | protein stability index (san1∆): 3.55 ± 0.15 | protein stability index (ubr1∆): 1.38 ± 0.19

VSEVAKIMQEATQSGGV [PRE8]
protein stability index (doa10∆): 2.96 ± 0.11 | protein stability index (pdr5∆): 2.77 ± 0.17 | protein stability index (san1∆): 2.77 ± 0.15 | protein stability index (ubr1∆): 3.05 ± 0.097

ADNKEDVKKPFSFGTSQ [YLR335W/NUP2]
protein stability index (doa10∆): 3.42 ± 0.1 | protein stability index (pdr5∆): 3.09 ± 0.096 | protein stability index (san1∆): 2.75 ± 0.16 | protein stability index (ubr1∆): 3.13 ± 0.099

KNNILGSNVLKSGKTIV [RRP43]
protein stability index (doa10∆): 3.05 ± 0.039 | protein stability index (pdr5∆): 3.11 ± 0.044 | protein stability index (san1∆): 3.04 ± 0.043 | protein stability index (ubr1∆): 3.076 ± 0.03

KTIVTGGNGPEDFQQHE [RPO26]
protein stability index (doa10∆): 3.29 ± 0.069 | protein stability index (pdr5∆): 3.33 ± 0.055 | protein stability index (san1∆): 3.32 ± 0.056 | protein stability index (ubr1∆): 3.31 ± 0.039

GTAIGAIGAQSIGEPGT [RPO31]
protein stability index (doa10∆): 3.12 ± 0.11 | protein stability index (pdr5∆): 3.13 ± 0.092 | protein stability index (san1∆): 2.61 ± 0.14 | protein stability index (ubr1∆): 3.15 ± 0.059

KKRREYFPEGYNNKVGV [SIR2]
protein stability index (doa10∆): 2.42 ± 0.13 | protein stability index (pdr5∆): 3.56 ± 0.19 | protein stability index (san1∆): 2.54 ± 0.2 | protein stability index (ubr1∆): 2.69 ± 0.047

LKNVNKRAFENFKKFNE [SMC3]
protein stability index (doa10∆): 2.23 ± 0.086 | protein stability index (pdr5∆): 1.95 ± 0.15 | protein stability index (san1∆): 1.91 ± 0.094 | protein stability index (ubr1∆): 1.88 ± 0.09

MFLEFQSTQTDLEKTER [SMC2]
protein stability index (doa10∆): 3.31 ± 0.1 | protein stability index (pdr5∆): 2.8 ± 0.14 | protein stability index (san1∆): 2.86 ± 0.25 | protein stability index (ubr1∆): 2.64 ± 0.15

GNKLVELMRIISRNGDT [SMC1]
protein stability index (ubr1∆): 3.28 ± 0.25

MSGYDRALSIFSPDGHI [PRE6]
protein stability index (doa10∆): 2.82 ± 0.12 | protein stability index (pdr5∆): 2.38 ± 0.14 | protein stability index (san1∆): 2.76 ± 0.09 | protein stability index (ubr1∆): 2.69 ± 0.077

VENELLQVDVDIAGQRD [RRP42]
protein stability index (doa10∆): 1.36 ± 0.25 | protein stability index (pdr5∆): 2.12 ± 0.28 | protein stability index (ubr1∆): 1.14 ± 0.19

LKNLRKKLNFKLCQAFM [YJR042W/NUP85]
protein stability index (doa10∆): 2.19 ± 0.089 | protein stability index (pdr5∆): 2.18 ± 0.093 | protein stability index (san1∆): 1.61 ± 0.15 | protein stability index (ubr1∆): 2.98 ± 0.15

QVLVTTNQDGLKFVKVR [RPB2]
protein stability index (doa10∆): 1.41 ± 0.075 | protein stability index (pdr5∆): 1.78 ± 0.1 | protein stability index (san1∆): 1.69 ± 0.14 | protein stability index (ubr1∆): 1.33 ± 0.11

TQLQICLDQMTEQFCAT [SRB7]
protein stability index (doa10∆): 2.74 ± 0.063 | protein stability index (pdr5∆): 2.88 ± 0.065 | protein stability index (san1∆): 2.54 ± 0.08 | protein stability index (ubr1∆): 2.52 ± 0.052

DHNGVPFPQYPAGMNET [ITC1]
protein stability index (doa10∆): 1.97 ± 0.12 | protein stability index (pdr5∆): 2.59 ± 0.11 | protein stability index (san1∆): 2.8 ± 0.19 | protein stability index (ubr1∆): 2.42 ± 0.064

IGLVKCTQMTDEGLLNM [GRR1]
protein stability index (doa10∆): 3.01 ± 0.068 | protein stability index (pdr5∆): 2.91 ± 0.066 | protein stability index (san1∆): 2.81 ± 0.057 | protein stability index (ubr1∆): 2.91 ± 0.043

LKSTKHSISEAENMLEE [SMC4]
protein stability index (doa10∆): 3.06 ± 0.081 | protein stability index (pdr5∆): 2.87 ± 0.12 | protein stability index (san1∆): 3.06 ± 0.077 | protein stability index (ubr1∆): 3.11 ± 0.05

LLIDQFSPVISQSLTSI [SWI1]
protein stability index (doa10∆): 1.64 ± 0.074 | protein stability index (pdr5∆): 1.99 ± 0.067 | protein stability index (san1∆): 1.64 ± 0.11 | protein stability index (ubr1∆): 1.66 ± 0.064

SEPIKEIIDNWEKYEQS [FAS1]
protein stability index (doa10∆): 2.88 ± 0.097 | protein stability index (pdr5∆): 3.22 ± 0.07 | protein stability index (san1∆): 3.23 ± 0.048 | protein stability index (ubr1∆): 2.96 ± 0.059

YDLMAPNGHISTKKIQV [YMR129W/POM152]
protein stability index (doa10∆): 2.15 ± 0.08 | protein stability index (pdr5∆): 2.06 ± 0.07 | protein stability index (san1∆): 1.5 ± 0.085 | protein stability index (ubr1∆): 1.94 ± 0.05

QNSSKIVNVLSKCLNLI [SWI3]
protein stability index (doa10∆): 2.21 ± 0.057 | protein stability index (pdr5∆): 1.98 ± 0.048 | protein stability index (san1∆): 1.96 ± 0.093 | protein stability index (ubr1∆): 1.31 ± 0.044

SDFTFPEYYSTARVMGG [DIS3]
protein stability index (doa10∆): 1.57 ± 0.073 | protein stability index (pdr5∆): 1.39 ± 0.084 | protein stability index (ubr1∆): 1.38 ± 0.13

From the supplement of paper PMC9732359
